In the Immune Epitope Database (IEDB):

Assays:
HLA-B*15:01 [1] = assay: IEDB peptide-MHC binding, purified MHC/competitive/fluorescence; filed as Kd, often an IC50 or EC50 that approximates it; ≥ and ≤ were set here for values at or beyond the usual limits of such assays
HLA-B*35:01 = assay: as above
HLA-B*18:01 = assay: IEDB peptide-MHC binding, purified MHC/direct/fluorescence; filed as Kd, often an IC50 or EC50 that approximates it; ≥ and ≤ were set here for values at or beyond the usual limits of such assays; conditions: source organism: Vibrio cholerae
HLA-A*01:01 = assay: as above
HLA-B*39:01 = assay: as above; conditions: source organism: Vibrio cholerae V52
HLA-B*46:01 = assay: as above
HLA-B*51:01 = assay: as above; conditions: source organism: Vibrio cholerae
HLA-B*15:17 [2] = assay: as above; conditions: source organism: Vibrio cholerae
HLA-B*15:01 [3] = assay: as above; conditions: source organism: Vibrio cholerae
HLA-A*02:01 [4] = assay: as above; conditions: source organism: Vibrio cholerae
HLA-B*48:01 = assay: as above
HLA-B*07:02 = assay: as above; conditions: source organism: Vibrio cholerae
HLA-A*11:01 [5] = assay: as above; conditions: source organism: Vibrio cholerae
HLA-B*40:01 = assay: as above
HLA-B*27:05 = assay: as above
HLA-A*03:01 = assay: as above; conditions: source organism: Vibrio cholerae
HLA-B*38:01 = assay: as above
HLA-B*58:01 = assay: as above
HLA-A*26:01 = assay: as above; conditions: source organism: Vibrio cholerae V52
HLA-A*69:01 = assay: as above
HLA-B*57:01 [6] = assay: as above; conditions: source organism: Vibrio cholerae
HLA-A*31:01 = assay: as above
HLA-B*08:01 [7] = assay: IEDB peptide-MHC binding, purified MHC/competitive/fluorescence; filed as Kd, often an IC50 or EC50 that approximates it; ≥ and ≤ were set here for values at or beyond the usual limits of such assays; conditions: source organism: Vibrio cholerae V52
HLA-A*30:01 = assay: as above; conditions: source organism: Vibrio cholerae V52
HLA-A*02:01 [8] = assay: IEDB peptide-MHC binding, cellular MHC/competitive/fluorescence; ≥ and ≤ were set here for values at or beyond the usual limits of such assays; conditions: source organism: Homo sapiens
HLA-C*12:03 = assay: IEDB peptide-MHC binding, purified MHC/direct/fluorescence; filed as Kd, often an IC50 or EC50 that approximates it; ≥ and ≤ were set here for values at or beyond the usual limits of such assays
HLA-B*45:06 = assay: IEDB peptide-MHC binding, purified MHC/competitive/fluorescence; filed as Kd, often an IC50 or EC50 that approximates it; ≥ and ≤ were set here for values at or beyond the usual limits of such assays; conditions: source organism: Gorilla gorilla
HLA-C*14:02 = assay: as above; conditions: source organism: Gorilla gorilla
HLA-B*15:42 = assay: as above; conditions: source organism: Gorilla gorilla
HLA-B*83:01 = assay: as above; conditions: source organism: Gorilla gorilla
HLA-A*26:03 = assay: IEDB peptide-MHC binding, purified MHC/direct/fluorescence; filed as Kd, often an IC50 or EC50 that approximates it; ≥ and ≤ were set here for values at or beyond the usual limits of such assays; conditions: source organism: Vibrio vulnificus CMCP6
HLA-B*08:02 = assay: as above; conditions: source organism: Vibrio vulnificus CMCP6
HLA-B*08:01 [9] = assay: as above; conditions: source organism: Vibrio vulnificus CMCP6
HLA-A*26:02 = assay: as above; conditions: source organism: Vibrio vulnificus CMCP6
HLA-B*15:09 = assay: as above; conditions: source organism: Vibrio vulnificus CMCP6
HLA-A*02:06 = assay: IEDB peptide-MHC binding, purified MHC/competitive/fluorescence; filed as Kd, often an IC50 or EC50 that approximates it; ≥ and ≤ were set here for values at or beyond the usual limits of such assays; conditions: source organism: Vibrio vulnificus CMCP6
HLA-B*15:17 [10] = assay: as above; conditions: source organism: Vibrio vulnificus CMCP6
HLA-A*02:01 [11] = assay: as above; conditions: source organism: Vibrio vulnificus CMCP6
HLA-A*11:01 [12] = assay: as above; conditions: source organism: Vibrio vulnificus CMCP6
HLA-A*02:03 = assay: as above; conditions: source organism: Vibrio vulnificus CMCP6
HLA-B*57:01 [13] = assay: as above; conditions: source organism: Vibrio vulnificus CMCP6
[14] = source organism: Desulfitobacterium hafniense DCB-2
[15] = source organism: Vibrio cholerae
[16] = source organism: Vibrio vulnificus
[17] = source organism: Vibrio vulnificus CMCP6
[18] = source organism: Bacillus anthracis str. A0488

Sequence FAGDLYRMY has a Kd (HLA-B*15:01 [1]; [14]) of 0.806 µM and a Kd (HLA-B*35:01; [14]) of 0.0071 µM.
For IVKQGRDAL, the Kd (HLA-B*18:01) was no less than 20 µM, the Kd (HLA-A*01:01; [15]) was no less than 20 µM and the Kd (HLA-B*39:01) was no less than 20 µM. It also gave a Kd (HLA-B*46:01; [15]) of no less than 20 µM, a Kd (HLA-B*51:01) of no less than 20 µM and a Kd (HLA-B*15:17 [2]) of no less than 20 µM. The Kd (HLA-B*15:01 [3]) was 1.34 µM, the Kd (HLA-A*02:01 [4]) was no less than 20 µM and the Kd (HLA-B*48:01; [15]) was no less than 20 µM. The Kd (HLA-B*07:02) was 0.226 µM, the Kd (HLA-A*11:01 [5]) was no less than 20 µM and the Kd (HLA-B*40:01; [15]) was no less than 20 µM. The Kd (HLA-B*27:05; [15]) was no less than 20 µM, the Kd (HLA-A*03:01) was no less than 20 µM and the Kd (HLA-B*38:01; source organism: Vibrio cholerae V52) was no less than 20 µM. The Kd (HLA-B*58:01; [15]) was no less than 20 µM, the Kd (HLA-A*26:01) was no less than 20 µM and the Kd (HLA-A*69:01; [15]) was no less than 20 µM. It also gave a Kd (HLA-B*57:01 [6]) of no less than 20 µM, a Kd (HLA-A*31:01; [15]) of no less than 20 µM and a Kd (HLA-B*08:01 [7]) of 1.46 µM. It also gave a Kd (HLA-A*30:01) of no less than 20 µM.
SLSEKTVLL gave an IC50 (HLA-A*02:01 [8]) of 21 µM.
VMAPRTLVL showed a Kd (HLA-C*12:03; source organism: Gorilla gorilla) of 2.28 µM, an IC50 (HLA-A*02:01 [8]) of 10.5 µM and a Kd (HLA-B*45:06) of no less than 5 µM. It also gave a Kd (HLA-C*14:02) of 0.0772 µM, a Kd (HLA-B*15:42) of no less than 5 µM and a Kd (HLA-B*83:01) of no less than 5 µM.
In the case of VTFFCVMTY, the Kd (HLA-A*01:01; [16]) is reported as 0.993 µM, the Kd (HLA-B*46:01; [16]) is reported as no less than 20 µM and the Kd (HLA-A*26:03) is reported as no less than 20 µM. For the same sequence, the Kd (HLA-B*08:02) was no less than 20 µM, the Kd (HLA-B*48:01; [16]) was no less than 20 µM and the Kd (HLA-B*08:01 [9]) was no less than 20 µM. The Kd (HLA-B*40:01; [16]) was no less than 20 µM, the Kd (HLA-A*26:02) was 1.78 µM and the Kd (HLA-B*27:05; [16]) was no less than 20 µM. It also gave a Kd (HLA-B*38:01; [17]) of no less than 20 µM, a Kd (HLA-B*58:01; [17]) of 0.111 µM and a Kd (HLA-C*12:03; [17]) of 0.043 µM. It also gave a Kd (HLA-A*69:01; [16]) of no less than 20 µM, a Kd (HLA-B*15:09) of no less than 20 µM and a Kd (HLA-A*31:01; [16]) of no less than 20 µM. It also gave a Kd (HLA-A*02:06) of 0.478 µM, a Kd (HLA-B*15:17 [10]) of 0.0151 µM and a Kd (HLA-B*15:01 [1]; [17]) of 2.23 µM. The Kd (HLA-A*02:01 [11]) was 2.1 µM, the Kd (HLA-A*11:01 [12]) was 0.225 µM and the Kd (HLA-A*02:03) was no less than 20 µM. For the same sequence, the Kd (HLA-B*57:01 [13]) was 1.75 µM.
For WCMQHLPSY, the Kd (HLA-B*15:01 [1]; [18]) was 0.102 µM and the Kd (HLA-B*35:01; [18]) was 0.004 µM.
